From patent US20230008090A1

How the values were obtained:
[1] = molecular target: cynomolgus monkey CD3 on cynomolgus monkey PBMC / T cells (cynomolgus monkey) (UniProt Q95LI5); assay: flow cytometry on cyno T cells (cynomolgus monkey PBMC)
[2] = molecular target: cynomolgus monkey EGFR on CHOK1-cynoPro1 (EGFR+/CD3-) cells (cynomolgus monkey); assay: flow cytometry on CHOK1-cynoPro1 cells
[3] = molecular target: human CD3 on Jurkat.2B8 (CD3+/EGFR-) cells (human) (UniProt P07766); assay: flow cytometry on Jurkat.2B8 (CD3+/EGFR-) cells
[4] = molecular target: human EGFR on tumor cells (A431, HT-29, MCF-7) (human) (UniProt P00533); assay: flow cytometry on A431 (EGFR+/CD3-) cells

cynomolgus monkey CD3 on cynomolgus monkey PBMC / T cells (cynomolgus monkey), sequence (Q95LI5 22-198): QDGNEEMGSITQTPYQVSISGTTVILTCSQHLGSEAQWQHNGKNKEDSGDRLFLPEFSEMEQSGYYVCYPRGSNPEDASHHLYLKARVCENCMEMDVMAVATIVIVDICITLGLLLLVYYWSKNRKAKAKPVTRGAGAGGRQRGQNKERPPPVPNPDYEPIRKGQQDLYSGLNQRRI
human CD3 on Jurkat.2B8 (CD3+/EGFR-) cells (human), sequence (P07766 23-207): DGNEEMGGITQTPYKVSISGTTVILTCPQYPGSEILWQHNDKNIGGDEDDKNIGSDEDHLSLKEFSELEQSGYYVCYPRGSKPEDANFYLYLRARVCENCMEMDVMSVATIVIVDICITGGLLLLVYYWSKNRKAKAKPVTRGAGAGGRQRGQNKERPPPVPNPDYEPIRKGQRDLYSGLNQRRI

In the case of IgG4 isotype control (antibody), the Top MFI [1] is reported as 210 MFI, the Top MFI [2] is reported as 38 MFI and the Top MFI [3] is reported as 235 MFI. For the same substance, the Top MFI [4] was 137 MFI.
